This series deals with Sox2(24-118) DBD (UniProt P48431 24-118). Kind of series: NMR titration; 0.5 M ionic strength; specific binding in slow exchange, nonspecific mode reduced; 20 mM Tris, 135 mM KCl, 15 mM NaCl, pH 7.3 (NMR: 10% D2O, 0.01% NaN3, 293 K; nanoDSF: 25 uM protein, 1 mM DTT in protein/DNA buffer, 288-368 K at 1 K/min). Particulars: protein: recombinant; tags: N-terminal T7-tag; blunt. On the technique in general: In DSF a fluorescence change marks the thermal transition of the protein.
Sox2(24-118) DBD, sequence (P48431 24-118): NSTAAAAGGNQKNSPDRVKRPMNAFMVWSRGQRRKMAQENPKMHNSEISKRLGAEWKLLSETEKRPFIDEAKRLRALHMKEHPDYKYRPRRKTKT

B1: FGF4 DNA 13-mer (dsDNA)
DNA 1: ACTCTTTGTTCGA
DNA 2: TCGAACAAAGAGT
B1: the binding result is recorded as “binds”.
